Positions count from the first letter of the chain named.
T1: human DLL3 (human, UniProt Q9NYJ7 27-492, limits assumed)
T1 construct: also called hDLL3; DLL3 protein
T1 sequence: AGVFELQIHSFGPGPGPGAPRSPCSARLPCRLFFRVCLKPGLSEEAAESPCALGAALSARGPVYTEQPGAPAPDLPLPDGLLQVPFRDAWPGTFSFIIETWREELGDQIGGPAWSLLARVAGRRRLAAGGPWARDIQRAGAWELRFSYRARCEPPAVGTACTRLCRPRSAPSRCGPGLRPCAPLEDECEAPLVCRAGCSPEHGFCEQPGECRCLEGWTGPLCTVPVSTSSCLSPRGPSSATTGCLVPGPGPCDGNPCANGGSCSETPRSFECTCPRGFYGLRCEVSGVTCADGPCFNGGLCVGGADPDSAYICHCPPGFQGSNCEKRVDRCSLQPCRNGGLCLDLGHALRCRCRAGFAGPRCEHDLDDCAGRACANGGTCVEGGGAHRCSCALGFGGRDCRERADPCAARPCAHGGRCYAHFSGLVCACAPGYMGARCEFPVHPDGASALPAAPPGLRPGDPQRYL

B1: SC16.18 (antibody, V domains shown)
VH: EVKLEESGGGLVQPGESMKLSCAASGFTFSDAWMDWVRQSPEKGLEWVAEIRNKANNHATYYAESVKGKFTISRDDSKSRVYLQMNNLRAADTGIYYCTAYSNFAYWGQGTLVTVST
VL: DIQMTQTTSSLSASLGDRVTISCRASQNIINYLNWYQQKPDGTVKLLIYYTSRLHSGVPSRFSGSGSGTDYSLTISNLEPEDIATYYCQQYSERPYTFGGGTKLEIK
notes: murine mAb
B2: SC16.35 (antibody, V domains shown)
VH: DVQLQESGPGLVKPSQSLSLTCTVTGYSITSDYAWNWIRQFPGNKLEWMGYISYSGSTSYNPSLKSRISITRDTSKNQFFLQLNSVTTEDTATYYCARFYYGSSYAMDYWGQGTSVTVSS
VL: B1 VL with N28D, I30S, P80Q, Y87F, Y91G, S92N, E93T, R94L
notes: murine mAb
B3: SC16.4 (antibody, V domains shown)
VH: QIQLVQSGPELKKPGETVKISCKASGYTFTDYSMHWVKQAPGKGLKWMGWINTETGEPGYADDFKGRFAFSLETSASTAYLQINNLKNEDTATYFCARYDGYAMDYWGQGTSVTVSS
VL: B1 VL with N28D, I30S, P80L, Y87F, Y91G, S92D, E93M, R94L, Y96W
notes: murine mAb
B4: SC16.41 (antibody, V domains shown)
VH: B1 VH with P14F, E16G, A63P, K69R, A91E, A100G, N103S, T117A
VL: B1 VL with N28D, I29V, G68R
notes: murine mAb
B5: SC16.47 (antibody, V domains shown)
VH: EVQLQQSGPELVKPGASVKISCKASGYSFSRFYMHWVKQSPENSLEWIGEINPSTGGTSYNQKFKGKATLTVDKSSSTAYMQLKSLTSEESAVYYCTRGYGSNCYFDVWGAGTTVTVST
VL: DVVLTQSPLSLPVNIGDQASISCKSTKSLLNSDGFTYLDWYLQRPGQSPQFLIYLVSNRFSGVPDRFSGSGSGTDFTLKISRVEAEDLGVYYCFQSNYLPLTFGAGTKLELR
notes: murine mAb
B6: SC16.22 (antibody, V domains shown)
VH: QVQLQQPGAELVKPGASVKLSCKASGYTFTTYWMHWVKQRPGQGLEWIGEIDPSDSYTYYNQKFKGKATLTVDKSSSTAYMQLSSLTSEDSAVYYCARGDYGNPYAMDYWGQGSSVTVSS
VL: DIQMTQTTSSLSASLGDRVTISCRASQDIKNYLNWYQQKPDGTVKPLIYYTSRVHSGVPSRFSGSGSGTDYSLTISNLEQEDIATYFCQQGYTLPFTFGSGTKLEIK
notes: murine mAb
B7: SC16.42 (antibody, V domains shown)
VH: QIQLVQSGPELKKPGETVKISCKASGYTFTTAGMQWVQKMPGKGFKWIGWINTHSGEPKYADDFKGRFAFSLETSASTAYLQISNLKDEDTATFFCAPLWSDSSFAYWGQGTLVTVSA
VL: DVLMTQSPLSLSVSLGDQASISCRSSQNIVHSDRYTYLEWYLQKPGQSPKLLIYGVSNRFSGVPDRFSGSGSGTDFTLKISRVEAEDMGVYYCFQGTHVPYTFGGGTKLEIK
notes: murine mAb
B8: SC16.3 (antibody, V domains shown)
VH: QVTLKESGPGILQPSQTLSLTCSFSGFSLSTSGMGVGWIRQPSGKGLEWLAHIWWDDVKRYNPALKSRLTISKDTSSSQVFLKIASVDTADTATYYCARIADYGGDYYAMDYWGQGTSVTVSS
VL: QIVLTQSPAIMSVSLGERVTMTCTASSSVSSSYLHWYQQKPGSSPKLWIYSTSNLASGVPARFSGSGSGTSYFFTISSMEAEDAATYYCHQYHRSPFTFGAGTKLKIR
notes: murine mAb
B9: SC16.30 (antibody, V domains shown)
VH: QVTLKESGPGILQPSQTLSLTCSFSGFSLSTSGMGVGWIRQPSGKGLEWLAHIWWDDVKRYKPALKSRLTVSKDTSSNQVFLKIATVDAADTGTYYCARIVDGHPPFAYWGQGTLVTVSA
VL: B8 VL with A9T, V13A, S30T, F73S, F74L, Y92F, A101S, K106E, R108K
notes: murine mAb
B10: SC16.5 (antibody, V domains shown)
VH: QVTLKESGPGILQPSQTLSLTCSFSGFSLSTSGMGVGWIRQPSGEGLEWLADIWWDDNKYYNPSLKSRLTISKDTSSNQVFLKITSVDTADTATYYCARRVNYVYDPYYAMDYWGQGTSVTVSS
VL: QIVLTQSPAIMSASPGEKVTMTCSASSSVSYMHWYQQKSGTSPKRWIYDTSKLASGVPARFSGSGSGTSYSLTISSMEAEDAATYYCQQWTRNPLTFGAGTKLELK
notes: murine mAb
B11: SC16.25 (antibody, V domains shown)
VH: B10 VH with A51T, K83N, V104Y
VL: B10 VL with T50S, T91S, R92S
notes: murine mAb
B12: SC16.20 (antibody, V domains shown)
VH: QVQLQQSGTELVRPGTSVRVSCKASGYAFGNHLIEWVKQRPGQGLEWIGVINPGTGGTHYNEKFKDKARLTADKSSNTAYMHLNSLTSDDSAVYFCARSPYDYHEGAMDYWGQGTSVTVSS
VL: EIQMTQSPSSMSASLGDRITITCQATQDIVKNLNWYQQKPGKPPSFLIYYATELAEGVPSRFSGSGSGSDYSLTIRNLESEDFADHYCLQFYEFPFTFGAGTKLELK
notes: murine mAb
B13: SC16.45 (antibody, V domains shown)
VH: QVQLQQSGADLVRPGTSVKVSCKASGYSFTNYLIEWVKQRPGQGLEWIGVINPGSGGTHYNEKFKDKAVLTADKSSTTAHMQLSSLTSDDSAVYFCARSPYDYNDGAMDYWGQGTSVTVSS
VL: B12 VL with S60A, R76S, H86Y, Y87H
notes: murine mAb
B14: SC16.19 (antibody, V domains shown)
VH: EVQLQQSGAELVRPGASVKLSCTASGFNIKDSLLHWVKQRPEKGLEWIGWIDPEDGETKYAPNFQDKATITTDSSSNTAYLQLISLTSVDTAIYYCAYGNYVRHFDYWGQGTTLTVSS
VL: DIQMTQSPSSLSASLGGKVTFTCKASQDIHKYVAWYQHKPGKGPRLLIHYTSTLQPGISSRFSGSGSGRDYSFSISNLEPEDIATYYCLQYNNLYTFGGGTKLEIK
notes: murine mAb
B15: SC16.29 (antibody, V domains shown)
VH: QVQLQQSGAELARPGASVKLSCKASGYTFTDQYINWVKQRTGQGLEWIGEIYPGRGNTYYNEKFKGKATLTADKSSSTAYMQLSSLTSEDSAVYFCAREDGGYDDAWFAYWGQGTLVTVSA
VL: QIVLTQSPAIMSASPGEKVTITCSASSSVSYMHWFQQKPGTSPKLWIYTTSNLASGVPARFSGSGSGTSYSLTVSRMEAEDAATYYCQQRSLYPYTFGGGTKVEIK
notes: murine mAb
B16: SC16.38 (antibody, V domains shown)
VH: EVQLQQSGAELVKPGASVKLSCTVSGFNIKDTYIHWVKQRPEQGLEWIGRIDPANGNTKYDPKFQGKATITADTSSNTAYLQLSSLTSEDTAVYYCARPTGYFEYWGQGTTLTVSS
VL: QIVLTQSPAIMSASPGEKVTMTCSASSSINYMHWYQQKPGTSPKRWIYDTSKLASGVPARFSGSGSGTSYSLTISSMEAEDAATYYCHQRSTWTFGGGTKLEIK
notes: murine mAb
B17: SC16.21 (antibody, V domains shown)
VH: QVQLQQSGPELVKPGASVKISCKASGYAFSSSWMNWVKQRPGKGLEWIGRIYPGDGDTNYNGKFKGKATLTADKSSSTAYMQLSSLTSEDSAVYFCAMGIYNYDGSRYYSMDYWGQGTSVTVSS
VL: DIVMTQSPSSLAMSVGQKVTMSCKSSQSLLNSSNQKNYLAWYQQEPGQSPKLLVSFASTRESGVPDRFTGSGSGTDFTLTISGVQAEDLAVYYCQQHYSIPLTFGAGTKLELK
notes: murine mAb

biological target: T1, human DLL3; assay: screen on immobilized hDLL3 or h293-hDLL3 cells
Summary of the method: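 Hybridoma supernatants from single cells of mice immunized with human DLL3 were screened after 10 days in culture. Binding by flow cytometry was scored positive when above the control. In the solid-phase ELISA, plates coated with DLL3-His at 0.5 μg/ml were probed with HRP anti-mouse IgG and TMB and read at OD 450.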

binding result | Binder
binds | B1
binds | B2
binds | B3
binds | B4
binds | B5
binds | B6
binds | B7
binds | B8
binds | B9
binds | B10
binds | B11
binds | B12
binds | B13
binds | B14
binds | B15
binds | B16
binds | B17
